Test results from publication PMC2647316 (Nucleic Acids Research, 2008).

T1: GkDnaC replicative helicase WT (Geobacillus kaustophilus HTA426, UniProt Q5KU75 1-454)
T1 sequence: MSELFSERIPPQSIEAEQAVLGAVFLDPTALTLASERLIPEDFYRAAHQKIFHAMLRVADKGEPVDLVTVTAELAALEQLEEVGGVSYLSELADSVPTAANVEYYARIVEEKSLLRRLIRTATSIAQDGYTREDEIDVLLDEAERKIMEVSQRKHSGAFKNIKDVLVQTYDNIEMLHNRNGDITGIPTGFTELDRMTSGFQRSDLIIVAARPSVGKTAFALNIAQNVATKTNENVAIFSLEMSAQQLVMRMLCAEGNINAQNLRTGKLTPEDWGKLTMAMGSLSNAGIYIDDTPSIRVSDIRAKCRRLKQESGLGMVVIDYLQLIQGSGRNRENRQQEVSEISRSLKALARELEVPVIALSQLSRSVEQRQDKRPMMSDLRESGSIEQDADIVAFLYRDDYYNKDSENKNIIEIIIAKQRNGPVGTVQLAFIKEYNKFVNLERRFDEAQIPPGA


Target: the molecule itself
Experiment: SEC

Row | Binder | stoichiometry N
1 | GkDnaC R145K146A double mutant (enzyme, Geobacillus kaustophilus HTA426, UniProt Q5KU75 1-454, looked up) MSELFSERIPPQSIEAEQAVLGAVFLDPTALTLASERLIPEDFYRAAHQKIFHAMLRVADKGEPVDLVTVTAELAALEQLEEVGGVSYLSELADSVPTAANVEYYARIVEEKSLLRRLIRTATSIAQDGYTREDEIDVLLDEAEAAIMEVSQRKHSGAFKNIKDVLVQTYDNIEMLHNRNGDITGIPTGFTELDRMTSGFQRSDLIIVAARPSVGKTAFALNIAQNVATKTNENVAIFSLEMSAQQLVMRMLCAEGNINAQNLRTGKLTPEDWGKLTMAMGSLSNAGIYIDDTPSIRVSDIRAKCRRLKQESGLGMVVIDYLQLIQGSGRNRENRQQEVSEISRSLKALARELEVPVIALSQLSRSVEQRQDKRPMMSDLRESGSIEQDADIVAFLYRDDYYNKDSENKNIIEIIIAKQRNGPVGTVQLAFIKEYNKFVNLERRFDEAQIPPGA | 6
2 | GkDnaC R120A (enzyme, Geobacillus kaustophilus HTA426, UniProt Q5KU75 1-454, looked up) MSELFSERIPPQSIEAEQAVLGAVFLDPTALTLASERLIPEDFYRAAHQKIFHAMLRVADKGEPVDLVTVTAELAALEQLEEVGGVSYLSELADSVPTAANVEYYARIVEEKSLLRRLIATATSIAQDGYTREDEIDVLLDEAERKIMEVSQRKHSGAFKNIKDVLVQTYDNIEMLHNRNGDITGIPTGFTELDRMTSGFQRSDLIIVAARPSVGKTAFALNIAQNVATKTNENVAIFSLEMSAQQLVMRMLCAEGNINAQNLRTGKLTPEDWGKLTMAMGSLSNAGIYIDDTPSIRVSDIRAKCRRLKQESGLGMVVIDYLQLIQGSGRNRENRQQEVSEISRSLKALARELEVPVIALSQLSRSVEQRQDKRPMMSDLRESGSIEQDADIVAFLYRDDYYNKDSENKNIIEIIIAKQRNGPVGTVQLAFIKEYNKFVNLERRFDEAQIPPGA | 6
3 | GkDnaC R332A (enzyme, Geobacillus kaustophilus HTA426, UniProt Q5KU75 1-454, looked up) MSELFSERIPPQSIEAEQAVLGAVFLDPTALTLASERLIPEDFYRAAHQKIFHAMLRVADKGEPVDLVTVTAELAALEQLEEVGGVSYLSELADSVPTAANVEYYARIVEEKSLLRRLIRTATSIAQDGYTREDEIDVLLDEAERKIMEVSQRKHSGAFKNIKDVLVQTYDNIEMLHNRNGDITGIPTGFTELDRMTSGFQRSDLIIVAARPSVGKTAFALNIAQNVATKTNENVAIFSLEMSAQQLVMRMLCAEGNINAQNLRTGKLTPEDWGKLTMAMGSLSNAGIYIDDTPSIRVSDIRAKCRRLKQESGLGMVVIDYLQLIQGSGRNAENRQQEVSEISRSLKALARELEVPVIALSQLSRSVEQRQDKRPMMSDLRESGSIEQDADIVAFLYRDDYYNKDSENKNIIEIIIAKQRNGPVGTVQLAFIKEYNKFVNLERRFDEAQIPPGA | 6
4 | GkDnaC R330A (enzyme, Geobacillus kaustophilus HTA426, UniProt Q5KU75 1-454, looked up) MSELFSERIPPQSIEAEQAVLGAVFLDPTALTLASERLIPEDFYRAAHQKIFHAMLRVADKGEPVDLVTVTAELAALEQLEEVGGVSYLSELADSVPTAANVEYYARIVEEKSLLRRLIRTATSIAQDGYTREDEIDVLLDEAERKIMEVSQRKHSGAFKNIKDVLVQTYDNIEMLHNRNGDITGIPTGFTELDRMTSGFQRSDLIIVAARPSVGKTAFALNIAQNVATKTNENVAIFSLEMSAQQLVMRMLCAEGNINAQNLRTGKLTPEDWGKLTMAMGSLSNAGIYIDDTPSIRVSDIRAKCRRLKQESGLGMVVIDYLQLIQGSGANRENRQQEVSEISRSLKALARELEVPVIALSQLSRSVEQRQDKRPMMSDLRESGSIEQDADIVAFLYRDDYYNKDSENKNIIEIIIAKQRNGPVGTVQLAFIKEYNKFVNLERRFDEAQIPPGA | 6
5 | GkDnaC K50A (enzyme, Geobacillus kaustophilus HTA426, UniProt Q5KU75 1-454, looked up) MSELFSERIPPQSIEAEQAVLGAVFLDPTALTLASERLIPEDFYRAAHQAIFHAMLRVADKGEPVDLVTVTAELAALEQLEEVGGVSYLSELADSVPTAANVEYYARIVEEKSLLRRLIRTATSIAQDGYTREDEIDVLLDEAERKIMEVSQRKHSGAFKNIKDVLVQTYDNIEMLHNRNGDITGIPTGFTELDRMTSGFQRSDLIIVAARPSVGKTAFALNIAQNVATKTNENVAIFSLEMSAQQLVMRMLCAEGNINAQNLRTGKLTPEDWGKLTMAMGSLSNAGIYIDDTPSIRVSDIRAKCRRLKQESGLGMVVIDYLQLIQGSGRNRENRQQEVSEISRSLKALARELEVPVIALSQLSRSVEQRQDKRPMMSDLRESGSIEQDADIVAFLYRDDYYNKDSENKNIIEIIIAKQRNGPVGTVQLAFIKEYNKFVNLERRFDEAQIPPGA | 6
6 | GkDnaC R344A (enzyme, Geobacillus kaustophilus HTA426, UniProt Q5KU75 1-454, looked up) MSELFSERIPPQSIEAEQAVLGAVFLDPTALTLASERLIPEDFYRAAHQKIFHAMLRVADKGEPVDLVTVTAELAALEQLEEVGGVSYLSELADSVPTAANVEYYARIVEEKSLLRRLIRTATSIAQDGYTREDEIDVLLDEAERKIMEVSQRKHSGAFKNIKDVLVQTYDNIEMLHNRNGDITGIPTGFTELDRMTSGFQRSDLIIVAARPSVGKTAFALNIAQNVATKTNENVAIFSLEMSAQQLVMRMLCAEGNINAQNLRTGKLTPEDWGKLTMAMGSLSNAGIYIDDTPSIRVSDIRAKCRRLKQESGLGMVVIDYLQLIQGSGRNRENRQQEVSEISASLKALARELEVPVIALSQLSRSVEQRQDKRPMMSDLRESGSIEQDADIVAFLYRDDYYNKDSENKNIIEIIIAKQRNGPVGTVQLAFIKEYNKFVNLERRFDEAQIPPGA | 6
7 | GkDnaC R145A (enzyme, Geobacillus kaustophilus HTA426, UniProt Q5KU75 1-454, looked up) MSELFSERIPPQSIEAEQAVLGAVFLDPTALTLASERLIPEDFYRAAHQKIFHAMLRVADKGEPVDLVTVTAELAALEQLEEVGGVSYLSELADSVPTAANVEYYARIVEEKSLLRRLIRTATSIAQDGYTREDEIDVLLDEAEAKIMEVSQRKHSGAFKNIKDVLVQTYDNIEMLHNRNGDITGIPTGFTELDRMTSGFQRSDLIIVAARPSVGKTAFALNIAQNVATKTNENVAIFSLEMSAQQLVMRMLCAEGNINAQNLRTGKLTPEDWGKLTMAMGSLSNAGIYIDDTPSIRVSDIRAKCRRLKQESGLGMVVIDYLQLIQGSGRNRENRQQEVSEISRSLKALARELEVPVIALSQLSRSVEQRQDKRPMMSDLRESGSIEQDADIVAFLYRDDYYNKDSENKNIIEIIIAKQRNGPVGTVQLAFIKEYNKFVNLERRFDEAQIPPGA | 6
8 | GkDnaC R117A (enzyme, Geobacillus kaustophilus HTA426, UniProt Q5KU75 1-454, looked up) MSELFSERIPPQSIEAEQAVLGAVFLDPTALTLASERLIPEDFYRAAHQKIFHAMLRVADKGEPVDLVTVTAELAALEQLEEVGGVSYLSELADSVPTAANVEYYARIVEEKSLLRALIRTATSIAQDGYTREDEIDVLLDEAERKIMEVSQRKHSGAFKNIKDVLVQTYDNIEMLHNRNGDITGIPTGFTELDRMTSGFQRSDLIIVAARPSVGKTAFALNIAQNVATKTNENVAIFSLEMSAQQLVMRMLCAEGNINAQNLRTGKLTPEDWGKLTMAMGSLSNAGIYIDDTPSIRVSDIRAKCRRLKQESGLGMVVIDYLQLIQGSGRNRENRQQEVSEISRSLKALARELEVPVIALSQLSRSVEQRQDKRPMMSDLRESGSIEQDADIVAFLYRDDYYNKDSENKNIIEIIIAKQRNGPVGTVQLAFIKEYNKFVNLERRFDEAQIPPGA | 6

Each binder was assayed against T1, GkDnaC replicative helicase WT (assay: X-ray crystal structure).

Row | Binder | binding result
9 | TTTTTTTTTTTTTTT (ssDNA) [(dT)15] | binds

Target: the molecule itself
Experiment: crystal structure

Row | Binder | stoichiometry N
10 | Geobacillus kaustophilus HTA426 DnaC helicase, wild type (enzyme, UniProt Q5KU75 1-454, looked up) MSELFSERIPPQSIEAEQAVLGAVFLDPTALTLASERLIPEDFYRAAHQKIFHAMLRVADKGEPVDLVTVTAELAALEQLEEVGGVSYLSELADSVPTAANVEYYARIVEEKSLLRRLIRTATSIAQDGYTREDEIDVLLDEAERKIMEVSQRKHSGAFKNIKDVLVQTYDNIEMLHNRNGDITGIPTGFTELDRMTSGFQRSDLIIVAARPSVGKTAFALNIAQNVATKTNENVAIFSLEMSAQQLVMRMLCAEGNINAQNLRTGKLTPEDWGKLTMAMGSLSNAGIYIDDTPSIRVSDIRAKCRRLKQESGLGMVVIDYLQLIQGSGRNRENRQQEVSEISRSLKALARELEVPVIALSQLSRSVEQRQDKRPMMSDLRESGSIEQDADIVAFLYRDDYYNKDSENKNIIEIIIAKQRNGPVGTVQLAFIKEYNKFVNLERRFDEAQIPPGA | 6
